The labels stand for the following.
B1: FLAG-tagged wild-type GMCL1 (germ cell-less protein-like 1) [human] / 53BP1 (p53-binding protein 1), endogenous in HEK293T [human (endogenous in HEK293T)] (parent complex)
chain 1: MGSLSSRVLRQPRPALAQQAQGARAGGSARRPDTGDDAAGHGFCYCAGSHKRKRSSGSFCYCHPDSETDEDEEEGDEQQRLLNTPRRKKLKSTSKYIYQTLFLNGENSDIKICALGEEWSLHKIYLCQSGYFSSMFSGSWKESSMNIIELEIPDQNIDVEALQVAFGSLYRDDVLIKPSRVVAILAAACLLQLDGLIQQCGETMKETVNVKTVCGYYTSAGTYGLDSVKKKCLEWLLNNLMTHQNVELFKELSINVMKQLIGSSNLFVMQVEMDIYTALKKWMFLQLVPSWNGSLKQLLTETDVWFSKQRKDFEGMAFLETEQGKPFVSVFRHLRLQYIISDLASARIIEQDAVVPSEWLSSVYKQQWFAMLRAEQDSEVGPQEINKEELEGNSMRCGRKLAKDGEYCWRWTGFNFGFDLLVTYTNRYIIFKRNTLNQPCSGSVSLQPRRSIAFRLRLASFDSSGKLICSRTTGYQILTLEKDQEQVVMNLDSRLLIFPLYICCNFLYISPEKKN
chain 2: MDPTGSQLDSDFSQQDTPCLIIEDSQPESQVLEDDSGSHFSMLSRHLPNLQTHKENPVLDVVSNPEQTAGEERGDGNSGFNEHLKENKVADPVDSSNLDTCGSISQVIEQLPQPNRTSSVLGMSVESAPAVEEEKGEELEQKEKEKEEDTSGNTTHSLGAEDTASSQLGFGVLELSQSQDVEENTVPYEVDKEQLQSVTTNSGYTRLSDVDANTAIKHEEQSNEDIPIAEQSSKDIPVTAQPSKDVHVVKEQNPPPARSEDMPFSPKASVAAMEAKEQLSAQELMESGLQIQKSPEPEVLSTQEDLFDQSNKTVSSDGCSTPSREEGGCSLASTPATTLHLLQLSGQRSLVQDSLSTNSSDLVAPSPDAFRSTPFIVPSSPTEQEGRQDKPMDTSVLSEEGGEPFQKKLQSGEPVELENPPLLPESTVSPQASTPISQSTPVFPPGSLPIPSQPQFSHDIFIPSPSLEEQSNDGKKDGDMHSSSLTVECSKTSEIEPKNSPEDLGLSLTGDSCKLMLSTSEYSQSPKMESLSSHRIDEDGENTQIEDTEPMSPVLNSKFVPAENDSILMNPAQDGEVQLSQNDDKTKGDDTDTRDDISILATGCKGREETVAEDVCIDLTCDSGSQAVPSPATRSEALSSVLDQEEAMEIKEHHPEEGSSGSEVEEIPETPCESQGEELKEENMESVPLHLSLTETQSQGLCLQKEMPKKECSEAMEVETSVISIDSPQKLAILDQELEHKEQEAWEEATSEDSSVVIVDVKEPSPRVDVSCEPLEGVEKCSDSQSWEDIAPEIEPCAENRLDTKEEKSVEYEGDLKSGTAETEPVEQDSSQPSLPLVRADDPLRLDQELQQPQTQEKTSNSLTEDSKMANAKQLSSDAEAQKLGKPSAHASQSFCESSSETPFHFTLPKEGDIIPPLTGATPPLIGHLKLEPKRHSTPIGISNYPESTIATSDVMSESMVETHDPILGSGKGDSGAAPDVDDKLCLRMKLVSPETEASEESLQFNLEKPATGERKNGSTAVAESVASPQKTMSVLSCICEARQENEARSEDPPTTPIRGNLLHFPSSQGEEEKEKLEGDHTIRQSQQPMKPISPVKDPVSPASQKMVIQGPSSPQGEAMVTDVLEDQKEGRSTNKENPSKALIERPSQNNIGIQTMECSLRVPETVSAATQTIKNVCEQGTSTVDQNFGKQDATVQTERGSGEKPVSAPGDDTESLHSQGEEEFDMPQPPHGHVLHRHMRTIREVRTLVTRVITDVYYVDGTEVERKVTEETEEPIVECQECETEVSPSQTGGSSGDLGDISSFSSKASSLHRTSSGTSLSAMHSSGSSGKGAGPLRGKTSGTEPADFALPSSRGGPGKLSPRKGVSQTGTPVCEEDGDAGLGIRQGGKAPVTPRGRGRRGRPPSRTTGTRETAVPGPLGIEDISPNLSPDDKSFSRVVPRVPDSTRRTDVGAGALRRSDSPEIPFQAAAGPSDGLDASSPGNSFVGLRVVAKWSSNGYFYSGKITRDVGAGKYKLLFDDGYECDVLGKDILLCDPIPLDTEVTALSEDEYFSAGVVKGHRKESGELYYSIEKEGQRKWYKRMAVILSLEQGNRLREQYGLGPYEAVTPLTKAADISLDNLVEGKRKRRSNVSSPATPTASSSSSTTPTRKITESPRASMGVLSGKRKLITSEEERSPAKRGRKSATVKPGAVGAGEFVSPCESGDNTGEPSALEEQRGPLPLNKTLFLGYAFLLTMATTSDKLASRSKLPDGPTGSSEEEEEFLEIPPFNKQYTESQLRAGAGYILEDFNEAQCNTAYQCLLIADQHCRTRKYFLCLASGIPCVSHVWVHDSCHANQLQNYRNYLLPAGYSLEEQRILDWQPRENPFQNLKVLLVSDQQQNFLELWSEILMTGGAASVKQHHSSAHNKDIALGVFDVVVTDPSCPASVLKCAEALQLPVVSQEWVIQCLIVGERIGFKQHPKYKHDYVSH

The results in this text go back to article PMC12815461 (2026).

In this test the parent is B1. Nature of the test: IP-MS (FLAG immunoprecipitation, MS/MS); HEK293T, 24 hr after transfection; read off a plot.
Take chain 1 E142K: the screen value is roughly 180.
